Reference: PMC3919604, “Single-molecule characterization of Fen1 and Fen1/PCNA complexes acting on flap substrates” (Nucleic Acids Research, 2013)
Positions count from the first letter of the chain named.

What was measured:
[1] = tested on: Fen1 (flap endonuclease 1);PCNA heterotrimer (PCNA1/PCNA2/PCNA3) (Sulfolobus solfataricus;Sulfolobus solfataricus); experiment: FRET titration; details: Fen1 titrated with 2 uM PCNA, 10 mM Ca2+; 10 mM Ca2+ (prevents cleavage), 20 C / room temperature; binding buffer, salt and pH not in held text (hybridization buffer 20 mM Tris-HCl pH 7.8, 25 mM NaCl)
[2] = tested on: Fen1 (flap endonuclease 1) (Sulfolobus solfataricus); experiment: FRET titration; details: 10 mM Ca2+, no PCNA; 10 mM Ca2+ (prevents cleavage), 20 C / room temperature; binding buffer, salt and pH not in held text (hybridization buffer 20 mM Tris-HCl pH 7.8, 25 mM NaCl)
[3] = tested on: Fen1 (flap endonuclease 1);PCNA-Cy5 heterotrimer (Sulfolobus solfataricus;Sulfolobus solfataricus); experiment: intermolecular FRET; details: PCNA-Cy5 titrated with 5 uM Fen1; substrate of the Kd fit not explicitly stated; 10 mM Ca2+ (prevents cleavage), 20 C / room temperature; binding buffer, salt and pH not in held text (hybridization buffer 20 mM Tris-HCl pH 7.8, 25 mM NaCl)
[4] = tested on: Fen1 (flap endonuclease 1);PCNA heterotrimer (PCNA1/PCNA2/PCNA3) (Sulfolobus solfataricus;Sulfolobus solfataricus); experiment: PIFE (Cy3); details: PCNA titrated with 5 uM Fen1, 10 mM Ca2+; 10 mM Ca2+ (prevents cleavage), 20 C / room temperature; binding buffer, salt and pH not in held text (hybridization buffer 20 mM Tris-HCl pH 7.8, 25 mM NaCl)
[5] = tested on: Fen1 (flap endonuclease 1);PCNA12 heterodimer (PCNA1/PCNA2) (Sulfolobus solfataricus;Sulfolobus solfataricus); experiment: PIFE (Cy3); details: PCNA12 titrated with 5 uM Fen1, 10 mM Ca2+; 10 mM Ca2+ (prevents cleavage), 20 C / room temperature; binding buffer, salt and pH not in held text (hybridization buffer 20 mM Tris-HCl pH 7.8, 25 mM NaCl)
[6] = tested on: Fen1 (flap endonuclease 1);PCNA heterotrimer (PCNA1/PCNA2/PCNA3) (Sulfolobus solfataricus;Sulfolobus solfataricus); experiment: ensemble FRET; details: Fen1 titrated with 2 uM PCNA, 10 mM Ca2+, 20 C; 10 mM Ca2+ (prevents cleavage), 20 C / room temperature; binding buffer, salt and pH not in held text (hybridization buffer 20 mM Tris-HCl pH 7.8, 25 mM NaCl)
[7] = tested on: Fen1 (flap endonuclease 1) (Sulfolobus solfataricus); experiment: ensemble FRET; details: 10 mM Ca2+, no PCNA, 20 C; 10 mM Ca2+ (prevents cleavage), 20 C / room temperature; binding buffer, salt and pH not in held text (hybridization buffer 20 mM Tris-HCl pH 7.8, 25 mM NaCl)
[8] = tested on: Fen1 (flap endonuclease 1);PCNA heterotrimer (PCNA1/PCNA2/PCNA3) (Sulfolobus solfataricus;Sulfolobus solfataricus); experiment: smFRET; details: Fen1 titrated with 2 uM PCNA, 10 mM Ca2+; 10 mM Ca2+ (prevents cleavage), 20 C / room temperature; binding buffer, salt and pH not in held text (hybridization buffer 20 mM Tris-HCl pH 7.8, 25 mM NaCl)
[9] = tested on: Fen1 (flap endonuclease 1) (Sulfolobus solfataricus); experiment: smFRET; details: 10 mM Ca2+, no PCNA; 10 mM Ca2+ (prevents cleavage), 20 C / room temperature; binding buffer, salt and pH not in held text (hybridization buffer 20 mM Tris-HCl pH 7.8, 25 mM NaCl)
[10] = target: Fen1 (Saccharolobus solfataricus) (UniProt Q980U8); details: cited from earlier work
[11] = target: T1, Cy5 acceptor-labelled Sulfolobus solfataricus PCNA heterotrimer (PCNA1 N131C-Cy5, PCNA2, PCNA3) (Sulfolobus solfataricus, UniProt P57766 1-249; Q97Z84 1-245; P57765 1-244, N131C, Cy5-maleimide on the single cysteine of N131C); experiment: FRET or BRET; ensemble inter-molecular FRET between Cy3-labelled double-flap DNA and Cy5-labelled PCNA; PCNA-Cy5 titrated, DNA pre-equilibrated with 5 uM Fen1; details: both partners purified
T1 construct: PCNA1 subunit, Sulfolobus solfataricus, with the point mutation N131C; PCNA2 subunit, Sulfolobus solfataricus, unlabelled; PCNA3 subunit, Sulfolobus solfataricus, unlabelled; Labelling yield about 80%; also called PCNA-Cy5; acceptor-labelled PCNA; copies: + +
T1 sequence (looked up) 1: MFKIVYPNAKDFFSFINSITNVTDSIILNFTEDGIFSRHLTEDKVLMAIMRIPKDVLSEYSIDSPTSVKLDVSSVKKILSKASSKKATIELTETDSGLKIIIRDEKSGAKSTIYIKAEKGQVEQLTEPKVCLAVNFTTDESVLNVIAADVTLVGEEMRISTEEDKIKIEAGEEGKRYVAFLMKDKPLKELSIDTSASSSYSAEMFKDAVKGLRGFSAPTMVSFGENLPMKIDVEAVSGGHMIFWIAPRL
T1 sequence (looked up) 2: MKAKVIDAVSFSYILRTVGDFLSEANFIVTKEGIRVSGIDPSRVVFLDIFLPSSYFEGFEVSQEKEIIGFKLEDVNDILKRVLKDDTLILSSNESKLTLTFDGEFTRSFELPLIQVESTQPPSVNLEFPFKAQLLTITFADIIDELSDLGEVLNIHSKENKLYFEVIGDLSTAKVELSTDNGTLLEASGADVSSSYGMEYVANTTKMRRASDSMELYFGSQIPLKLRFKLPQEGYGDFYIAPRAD
T1 sequence (looked up) 3: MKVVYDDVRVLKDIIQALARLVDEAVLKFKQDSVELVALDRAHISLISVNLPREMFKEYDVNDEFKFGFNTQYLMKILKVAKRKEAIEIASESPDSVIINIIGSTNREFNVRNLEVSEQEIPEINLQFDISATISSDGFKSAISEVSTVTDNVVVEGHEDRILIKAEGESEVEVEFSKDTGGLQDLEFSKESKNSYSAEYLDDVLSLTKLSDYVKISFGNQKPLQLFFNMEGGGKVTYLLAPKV

[12] = target: T2, Sulfolobus solfataricus PCNA heterotrimer (PCNA1, PCNA2, PCNA3) (Sulfolobus solfataricus, UniProt P57766 1-249; Q97Z84 1-245; P57765 1-244); experiment: other fluorescence titration; protein-induced fluorescence enhancement (PIFE) of Cy3 on the 3F-duplex of a double-flap DNA; PCNA or PCNA12 titrated into DNA pre-incubated with 5 uM Fen1, 10 mM Ca2+; 30 mM HEPES pH 7.6, 40 mM KCl, 5% glycerol, 0.1 mg/ml BSA, 20 C; details: both partners purified
T2 construct: PCNA1 subunit of the heterotrimeric PCNA, Sulfolobus solfataricus; PCNA2 subunit of the heterotrimeric PCNA, Sulfolobus solfataricus; PCNA3 subunit of the heterotrimeric PCNA, Sulfolobus solfataricus; also called heterotrimeric PCNA; sliding clamp; copies: + +
T2 sequence (looked up) 1: T1 sequence (looked up) 1 with C131N
T2 sequence (looked up) 2: T1 sequence (looked up) 2
T2 sequence (looked up) 3: T1 sequence (looked up) 3

[13] = target: T3, Sulfolobus solfataricus PCNA1-PCNA2 heterodimer (PCNA12) (Sulfolobus solfataricus, UniProt P57766 1-249; Q97Z84 1-245); experiment: as above; details: both partners purified
T3 construct: PCNA1 subunit, Sulfolobus solfataricus; PCNA2 subunit, Sulfolobus solfataricus; also called PCNA12 complex
T3 sequence (looked up) 1: T1 sequence (looked up) 1 with C131N
T3 sequence (looked up) 2: T1 sequence (looked up) 2

## 5'-flap substrate lacking the 3' extrahelical nucleotide
[1]
  Kd: 700 nM
[2]
  Kd: > 10 µM

## Double flap, Cy3 in 3F-duplex
[3]
  Kd: 117 nM
[4]
  Kd: 160 nM
[5]
  Kd: 360 nM

## Flap-12/23/13 double flap (global fit of three labelled versions)
[6]
  Kd: 3 nM
[7]
  Kd: 14 nM

## Flap-23 double flap, single-molecule, Cy3/Cy5, biotin
[8]
  Kd: 1.6 nM
[9]
  Kd: 23 nM

## PCNA (from UniProt P57766)
[10]
  Kd: 210 nM

B1: Sulfolobus solfataricus Flap endonuclease 1 (Fen1) (enzyme, UniProt Q980U8 1-349, looked up)
chain: MDLADLVKDVKRELSFSELKGKRVSIDGYNALYQFLAAIRQPDGTPLMDSQGRVTSHLSGLFYRTINILEEGVIPIYVFDGKPPEQKSEELERRRKAKEEAERKLERAKSEGKIEELRKYSQAILRLSNIMVEESKKLLRAMGIPIVQAPSEGEAEAAYLNKLGLSWAAASQDYDAILFGAKRLVRNLTITGKRKLPNKDVYVEIKPELIETEILLKKLGITREQLIDIGILIGTDYNPDGIRGIGPERALKIIKKYGKIEKAMEYGEISKKDINFNIDEIRGLFLNPQVVKPEEALDLNEPNGEDIINILVYEHNFSEERVKNGIERLTKAIKEAKGASRQTGLDRWF
notes: Flap endonuclease 1 (Fen1), Sulfolobus solfataricus
[11]
  Kd: 117 ± 34 nM
[12]
  Kd: 160 ± 14 nM
[13]
  Kd: 360 ± 30 nM
